Patent US20260034234A1 (AGENSYS, published 2026)

What was measured:
[1] = target: Murine ortholog of 191P4D12, N90S, I75A double mutant (on PC3 cells) (mouse) (UniProt Q8R007); assay: FACS titration of Ha22-2(2,4)6.1 on PC3 cells expressing mouse 191P4D12 I75A,N90S
[2] = target: T1, 191P4D12 (aa 1-31, 147-346), mFc-C1C2, fusion protein (human, UniProt Q96NY8 1-346); assay: Western blot of purified mFc fusion proteins (non-reduced SDS-PAGE), probed with Ha22-2(2,4)6.1-biotin and streptavidin-HRP
T1 construct: Expressed in 293T cells and purified; also called C1C2 fusion construct; not shown: murine Fc
T1 sequence: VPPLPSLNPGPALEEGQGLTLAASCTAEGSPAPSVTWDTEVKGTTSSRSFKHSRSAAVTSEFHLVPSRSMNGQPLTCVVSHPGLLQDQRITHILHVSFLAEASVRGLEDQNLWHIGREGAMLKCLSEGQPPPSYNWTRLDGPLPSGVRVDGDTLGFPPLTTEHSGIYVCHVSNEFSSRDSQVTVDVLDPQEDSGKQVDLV
Protocol: To further corroborate the results set forth in FIG. 10, a Western Blot analysis was performed. Briefly, the entire extracellular portion of 191P4D12 (full length), as well as specific domains set forth in Table VI were expressed in 293T cells as murine Fc fusion proteins and purified. Goat anti-mouse-HRP were used as a control.

[3] = target: T2, Murine ortholog of 191P4D12, wild type (on PC3 cells) (mouse, UniProt Q8R007 31-508); assay: FACS on PC3 cells expressing the murine ortholog
T2 construct: whole, on cells; also called mouse 191P4D12
T2 sequence (looked up): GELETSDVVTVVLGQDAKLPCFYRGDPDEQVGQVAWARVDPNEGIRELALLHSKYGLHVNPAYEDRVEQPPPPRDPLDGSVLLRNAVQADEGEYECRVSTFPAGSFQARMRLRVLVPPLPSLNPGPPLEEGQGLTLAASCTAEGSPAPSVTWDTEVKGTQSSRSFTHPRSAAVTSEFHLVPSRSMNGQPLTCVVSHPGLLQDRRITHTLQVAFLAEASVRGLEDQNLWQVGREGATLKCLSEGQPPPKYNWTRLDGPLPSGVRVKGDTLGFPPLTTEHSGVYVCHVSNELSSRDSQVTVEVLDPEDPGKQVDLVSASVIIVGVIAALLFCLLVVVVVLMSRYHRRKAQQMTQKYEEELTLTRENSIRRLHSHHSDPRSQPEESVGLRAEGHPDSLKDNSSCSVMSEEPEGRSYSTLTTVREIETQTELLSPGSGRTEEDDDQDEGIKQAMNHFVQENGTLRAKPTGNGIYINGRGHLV
Source text: The 191P4D12 protein of human, cynomolgus, rat and murine origin was overexpressed recombinantly in a PC3 cell line to determine cross-reactivity of Ha22-2(2,4)6.1 to these orthologs. It was shown that Ha22-2(2,4)6.1 strongly cross-reacts with cynomolgus and rat orthologs of 191P4D12 (FIG. 23).

[4] = target: T3, 191P4D12 (human, wild type, on cells) (human, UniProt Q96NY8 32-510); assay: FACS titration on PC3 cells expressing 191P4D12
T3 construct: 510 amino acid ORF expressed on PC3, RAT/Rat1(E) cells and present in cancer cell lines and tumor specimens; also called human 191P4D12; wild-type 191P4D12
T3 sequence: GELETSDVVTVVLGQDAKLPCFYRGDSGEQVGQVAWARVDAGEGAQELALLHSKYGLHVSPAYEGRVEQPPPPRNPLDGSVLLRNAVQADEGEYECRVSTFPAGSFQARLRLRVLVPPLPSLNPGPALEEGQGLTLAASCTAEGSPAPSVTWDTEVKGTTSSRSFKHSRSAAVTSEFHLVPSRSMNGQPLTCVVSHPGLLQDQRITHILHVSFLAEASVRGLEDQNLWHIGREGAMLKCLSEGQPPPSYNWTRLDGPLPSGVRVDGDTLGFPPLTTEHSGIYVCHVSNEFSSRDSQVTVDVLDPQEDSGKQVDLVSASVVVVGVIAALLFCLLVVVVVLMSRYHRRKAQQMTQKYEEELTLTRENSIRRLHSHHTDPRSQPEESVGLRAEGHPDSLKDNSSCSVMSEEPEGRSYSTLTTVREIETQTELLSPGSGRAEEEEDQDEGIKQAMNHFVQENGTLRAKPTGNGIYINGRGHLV

B1: Ha22-2(2,4)6.1 MAb (antibody, human IgG1, kappa, V domains shown)
VH: EVQLVESGGGLVQPGGSLRLSCAASGFTFSSYNMNWVRQAPGKGLEWVSYISSSSSTIYYADSVKGRFTISRDNAKNSLSLQMNSLRDEDTAVYYCARAYYYGMDVWGQGTTVTVSS
VL: DIQMTQSPSSVSASVGDRVTITCRASQGISGWLAWYQQKPGKAPKFLIYAASTLQSGVPSRFSGSGSGTDFTLTISSLQPEDFATYYCQQANSFPPTFGGGTKVEIKR
notes: Fully human IgG1 kappa from XenoMouse; Used biotinylated in the Western blot; also called 191P4D12 MAb Ha22-2(2,4)6.1; Ha22-(2,4)6.1 MAb
B1 was tested, and the EC50 (read off the curve) [1] was 0.5 nM, the binding result [2] was “no binding” and the EC50 [3] was 70.3 nM. For the same binder, the “EC50 (read off the curve)” value [4] was roughly 0.4 nM.
